Article PMC5177531

Legend:
[1] = target: T1, 6TM/E11 mu opioid receptor site 6TM variant (Mus musculus), P42866; test: competition; conditions: modification not given
T1 chain: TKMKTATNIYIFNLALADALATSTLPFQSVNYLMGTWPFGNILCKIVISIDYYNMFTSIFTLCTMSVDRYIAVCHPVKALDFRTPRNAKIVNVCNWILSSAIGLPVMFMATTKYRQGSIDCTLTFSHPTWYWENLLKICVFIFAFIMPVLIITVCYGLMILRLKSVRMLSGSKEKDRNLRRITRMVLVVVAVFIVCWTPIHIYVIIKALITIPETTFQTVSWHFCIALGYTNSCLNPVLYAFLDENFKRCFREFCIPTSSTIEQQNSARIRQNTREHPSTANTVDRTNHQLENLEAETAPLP

[2] = target: mMOR-1 (Mus musculus), P42866; test: competition; conditions: modification not given
mMOR-1 (Mus musculus), P42866, sequence (P42866 whole entry): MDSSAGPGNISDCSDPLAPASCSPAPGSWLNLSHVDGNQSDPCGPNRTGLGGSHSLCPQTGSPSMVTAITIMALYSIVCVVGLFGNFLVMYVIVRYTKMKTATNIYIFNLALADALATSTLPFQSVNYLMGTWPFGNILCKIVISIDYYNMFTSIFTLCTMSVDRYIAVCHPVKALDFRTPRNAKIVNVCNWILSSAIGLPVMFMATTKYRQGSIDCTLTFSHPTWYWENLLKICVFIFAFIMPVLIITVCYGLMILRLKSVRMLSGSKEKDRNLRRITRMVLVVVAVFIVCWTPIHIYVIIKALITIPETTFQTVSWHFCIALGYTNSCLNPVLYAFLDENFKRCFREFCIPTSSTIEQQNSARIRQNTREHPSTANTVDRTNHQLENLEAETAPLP

B1: Dermorphin (peptide)
chain: YAFGYPS
B1 was tested, and the Ki [1] was over 500 nM and the Ki [2] was 4 nM.
